B4: human BCMA on NCI-H929 cells (receptor)
chain: MLQMAGQCSQNEYFDSLLHACIPCQLRCSSNTPPLTCQRYCNASVTNSVKGTNAILWTCLGLSLIISLAVFVLMFLLRKINSEPLKDEFKNTGSGLLGMANIDLEKSRTGDEIILPRGLEYTVEECTCEDCIKSKPKVDSDHCFPLPAMEEGATILVTTKTNDYCKSLPAALSATEIEKSISAR
notes: BCMA-positive human multiple myeloma cell line NCI-H929 (ATCC CRL-9068); also called B-cell maturation antigen; CD269

How the values were obtained:
[1] = target: B4; assay: flow cytometry on NCI-H929 cells, yeast-expressed antibody
Protocol: The method is specifically as follows: [0293] 1. A human NCI-H929 (ATCC, CRL-9068) cell suspension was taken, adjusted to a cell density of 2×10⁶ cells/mL, and added to a 96-well microplate at 100 μL/well. The cell suspension was centrifuged at 400 G for 5 min and the supernatant was removed. [0294] 2. The anti-BCMA antibody solution was serially diluted in 3-fold gradient in PBS containing 0.1% bovine serum albumin (BSA) from a concentration of 400 nM for a total of 12 points, 100 μL of the dilution of the antibody was added to each well, and then the plate was incubated at 4° C. for 30 min [0295] 3. The mixture was centrifuged at 400 G for 5 min, and washed twice with PBS, and […] of a dilution of a secondary antibody (a phycoerythrin (PE) labeled goat anti-human IgG antibody, SouthernBiotech, final concentration: 5 μg/mL) in PBS (1% BSA) was added to each well. The plate was incubated at 4° C. for 30 min (in the dark). [0296] 4. Then the resulting solution was centrifuged at 400 G for 5min, and washed twice with PBS, and the cells were resuspended with 100 μL of PBS per well. Flow cytometry was performed on an Accuri C6 system (BD Bioscience) to detect PE positive signals, and MFI was calculated based on C6 software. The EC50 values were calculated using GraphPad software.

ADI-34848 scFv-hFc [2] = assay: flow cytometry on NCI-H929 cells, scFv-hFc
ADI-34848 scFv-hFc [3] = assay: BLI (ForteBio Octet Red96), scFv-hFc on AHC sensors, human BCMA-His in solution
Protocol: The kinetic constants of the antibody molecules were determined based on the biofilm layer interferometry (BLI) of a fiber optic biosensor.
The Fortebio instrument model used in the experiment was Octet Red96, and a ForteBio affinity assay was performed according to the existing method (Estep, P et al., High throughput solution Based measurement of antibody-antigen affinity and epitope binning MAbs, 2013.5 (2): p. 270-8). The assay is specifically as follows: [0317] 1. Half an hour before the experiment, an appropriate number of AHC sensors were taken according to the number of samples and soaked in the SD buffer (50 mL PBS+0.1% BSA +0.05% Tween-20). [0318] 2. SD buffer, scFv-hFc antibodies and human BCMA-His antigens (ACRO BIOSYSTEMS, BCA-H522Y), each of 100 μL were added to a 96-well half-area black polystyrene microplate respectively. [0319] 3. The plates were arranged according to the positions of the samples, the positions of the sensors were selected, and the operation procedures were set as: Baseline, Loading ˜1 nm, Baseline, Association, and Dissociation, each running for a time depending on the binding and dissociation rates of the sample, at a rotation speed of 1,000 rpm and a temperature of 30° C. [0320] 4.

B1: ADI-34854 (antibody, V domains shown)
VH: QVQLVESGGGVVQPGRSLRLSCAASGFTFSSYGMHWVRQAPGKGLEWVAVISYEGSNKYYADSVKGRFTISRDNSKNTLYLQMNSLRAEDTAVYYCARDTSSYGDASYGMDVWGQGTTVTVSS
VL: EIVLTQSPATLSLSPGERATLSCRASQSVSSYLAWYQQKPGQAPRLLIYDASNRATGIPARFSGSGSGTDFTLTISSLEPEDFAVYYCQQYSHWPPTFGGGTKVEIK
notes: Yeast-expressed fully human antibody purified on protein A
[1]
  EC50: 83.2 nM

B2: ADI-34832 (antibody, V domains shown)
VH: QITLKESGPTLVKPTQTLTLTCTFSGFSLSTSGVGVGWIRQPPGKALEWLALIYWNDEKRYSPSLKSRLTITKDTSKNQVVLTMTNMDPVDTAVYYCARDPGEQLQVFDYWGQGTLVTVSS
VL: DIQMTQSPSSVSASVGDRVTITCRASQGISSWLAWYQQKPGKAPKLLIYAASSLQSGVPSRFSGSGSGTDFTLTISSLQPEDFATYYCQQTLSLPITFGGGTKVEIK
notes: as for B1
[1]
  EC50: 34.1 nM

B3: ADI-34859 (antibody, V domains shown)
VH: QLQLQESGPGLVKPSETLSLTCTVSGGSISSSSYYWGWIRQPPGKGLEWIGSISYSGSTYYNPSLKSRVTISVDTSKNQFSLKLSSVTAADTAVYYCARDRGDTILDVWGQGTMVTVSS
VL: DIQMTQSPSSLSASVGDRVTITCRASQSINSYLNWYQQKPGKAPKLLIYAASSLQSGVPSRFSGSGSGTDFTLTISSLQPEDFATYYCQQKASAPITFGGGTKVEIK
notes: as for B1
[1]
  EC50: 85.8 nM

## B4
ADI-34848 scFv-hFc [2]
  binding result: binds

B5: ADI-34846 (antibody, V domains shown)
VH: QVQLVQSGAEVKKPGSSVKVSCKASGGTFSNYAISWVRQAPGQGLEWMGGIIPIFGTANYAQKFQGRVTITADESTSTAYMELSSLKSEDTAVYYCARGSGYYSSWLFDIWGQGTMVTVSS
VL: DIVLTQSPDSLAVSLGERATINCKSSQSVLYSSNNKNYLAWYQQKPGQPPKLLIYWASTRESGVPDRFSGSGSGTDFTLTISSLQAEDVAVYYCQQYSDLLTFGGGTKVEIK
notes: as for B1
[1]
  EC50: 136 nM

B6: human BCMA-His (receptor)
chain: MLQMAGQCSQNEYFDSLLHACIPCQLRCSSNTPPLTCQRYCNASVTNSVKGTNA
notes: Bought antigen (ACRO BIOSYSTEMS, BCA-H522Y); probably only the extracellular domain stood in the assay; also called hBCMA-His; monovalent human BCMA; not shown: His tag
ADI-34848 scFv-hFc [3]
  Kd: 71.1 nM
  koff: 0.0145 s⁻¹
  kon: 204000 M⁻¹ s⁻¹

B7: ADI-34848 (antibody, V domains shown)
VH: EVQLLESGGGLVQPGGSLRLSCAASGFTFDDYAMHWVRQAPGKGLEWVSGISWSSGSIGYADSVKGRFTISRDNAKNSLYLQMNSLRAEDTAVYYCAKDSPRRDSFGSIAFDIWGQGTMVTVSS
VL: not shown
notes: as for B1
[1]
  EC50: 24.8 nM

B8: ADI-34850 (antibody, V domains shown)
VH: EVQLVESGGGLVQPGRSLRLSCAASGFTFDDYAMHWVRQAPGKGLEWVSGISWSSGSIGYADSVKGRFTISRDNAKNSLYLQMNSLRAEDTAVYYCAKDSPRRDSFGSIAFDIWGQGTMVTVSS
VL: EIVMTQSPATLSVSPGERATLSCRASQSVGSNLAWYQQKPGQAPRLLIYGASTRATGIPARFSGSGSGTEFTLTISSLQSEDFAVYYCQQSVNLPITFGGGTKVEIK
notes: as for B1
[1]
  EC50: 12.1 nM

B9: ADI-34849 (antibody, V domains shown)
VH: EVQLVESGGGLVQPGRSLRLSCAASGFTFDDYAMHWVRQAPGKGLEWVSGISWSSGSIGYADSVKGRFTISRDNAKNSLYLQMNSLRAEDTAVYYCAKDSPRRDSFGSIAFDIWGQGTMVTVSS
VL: EIVLTQSPATLSLSPGERATLSCRASQSVSSYLAWYQQKPGQAPRLLIYDASKRATGIPARFSGSGSGTDFTLTISSLEPEDFAVYYCQQASALPLTFGGGTKVEIK
notes: as for B1
[1]
  EC50: 9.11 nM

B10: ADI-34857 (antibody, V domains shown)
VH: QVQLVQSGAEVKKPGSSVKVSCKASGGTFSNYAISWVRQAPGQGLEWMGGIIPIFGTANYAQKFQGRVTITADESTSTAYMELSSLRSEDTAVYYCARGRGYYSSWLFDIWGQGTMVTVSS
VL: DIQMTQSPSSLSASVGDRVTITCQASQDITNYLNWYQQKPGKAPKLLIYDASNLETGVPSRFSGSGSGTDFTFTISSLQPEDIATYYCQQAFDLITFGGGTKVEIK
notes: as for B1
[1]
  EC50: 25.2 nM

B11: ADI-34860 (antibody, V domains shown)
VH: QLQLQESGPGLVKPSETLSLTCTVSGGSISSSSYYWGWIRQPPGKGLEWIGSISYSGSTYYNPSLKSRVTISVDTSKNQFSLKLSSVTAADTAVYYCARDRGDTILDVWGQGTMVTVSS
VL: DIQMTQSPSSLSASVGDRVTITCRASQSISSYLNWYQQKPGKAPKLLIYAASSLQSGVPSRFSGSGSGTDFTLTISSLQPEDFATYYCQQKYDLLTFGGGTKVEIK
notes: as for B1
[1]
  EC50: 144 nM

B12: ADI-34861 (antibody, V domains shown)
VH: QLQLQESGPGLVKPSETLSLTCTVSGGSISSSSYYWGWIRQPPGKGLEWIGSISYSGSTYYNPSLKSRVTISVDTSKNQFSLKLSSVTAADTAVYYCARDRGDTILDVWGQGTMVTVSS
VL: DIQMTQSPSSLSASVGDRVTITCRASQSISRYLNWYQQKPGKAPKLLIYAASSLQSGVPSRFSGSGSGTDFTLTISSLQPEDFATYYCQQKYFDITFGGGTKVEIK
notes: as for B1
[1]
  EC50: 65.1 nM

From US20200339699A1 (Innovent, published 2020)
